Results published in paper PMC11624207, “Human PC4 supports telomere stability and viability in cells utilizing the alternative lengthening of telomeres mechanism”.

Target: PC4wt (His-tagged) (human, UniProt P53999 1-127)
Assay: EMSA; EMSA: 50 mM HEPES pH 8, 1 mM DTT, 100 mM NaCl, 0.01% BSA, 2% glycerol; 20 min on ice then 10 min at 25 C; native 8% PAGE, 0.5x TBE, 4 C
Settings: protein: recombinant, tags: N-terminal 6xHis, chain copies: 2, label: 5'-32P, single strand

Binder	binding result	further results
TTACGGTTACGGTTACGGTTACGGTTACGG (ssDNA) [mutant telomeric G-rich (TTACGG)5]	–	binding result (unable to form G4): binds
CCCTAACCCTAACCCTAACCCTAACCCTAA (ssDNA) [telomeric C-rich (CCCTAA)5]	binds	–
GGACTCTAGCGTGGATCCTTAAGCTAGAAT (ssDNA) [unrelated oligonucleotide]	binds	–
TTAGGGTTAGGGTTAGGGTTAGGGTTAGGG (ssDNA) [telomeric G-rich (TTAGGG)5]	–	binding result (G4-capable): binds
